Assay results published in publication PMC3597591.

Molecular target: 14-3-3η (UniProt P68511)
Assay: GST pull-down from cell lysate
Conditions: reference: lysate with phosphatase inhibitors (PhosStop); sites S2845

Bassoon Bsn28, 2715-3013 (from UniProt O88778) lysate treated with alkaline phosphatase
binding against the reference: weaker
